# In publication PMC3772012, “Enzyme Immobilisation on Amino-Functionalised Multi-Walled Carbon Nanotubes: Structural and Biocatalytic Characterisation” (PLoS ONE, 2013):
# Substrate: CCCCCCCCCCCCCCCC(=O)Oc1ccc([N+](=O)[O-])cc1
# Test: purified protein
# Type: biochemical, Thermomyces lanuginosus
# Conditions: free enzyme, 50 mM Tris pH 9.0, 60 °C, 10-60 mM substrate, Triton X-100 and gum acacia in assay buffer
protein,measurement,value
"Thermomyces lanuginosus lipase (Thermomyces lanuginosus) (protein, free enzyme) EVSQDLFNQFNLFAQYSAAAYCGKNNDAPAGTNITCTGNACPEVEKADATFLYSFEDSGVGDVTGFLALDNTNKLIVLSFRGSRSIENWIGNLNFDLKEINDICSGCRGHDGFTSSWRSVADTLRQKVEDAVREHPDYRVVFTGHSLGGALATVAGADLRGNGYDIDVFSYGAPRVGNRAFAEFLTVQTGGTLYRITHTNDIVPRLPPREFGYSHSSPEYWIKSGTLVPVTRNDIVKIEGIDATGGNNQPNIPDIPAHLWYFGLIGTCL",Km,3.1 mM
same,Vmax,20.1 µmol/min/mg
